Experimental data: article PMC4411306, “Osmosensing and scaffolding functions of the oligomeric four-transmembrane domain osmosensor Sho1” (Nature Communications, 2015)

Target: the molecule itself
Assay: cross-linking; membrane fraction of cells expressing a single-Cys mutant of HA-Sho1*; homo-trifunctional crosslinker TMEA; SDS–PAGE, anti-HA blot

| Protein | stoichiometry N |
| --- | --- |
| HA-Sho1* G50C (natural protein, Saccharomyces cerevisiae, UniProt P40073 1-367, looked up, Sho1, S. cerevisiae, Cys-less (C78S C85S) with a single Cys in TM1; source: S. cerevisiae KT079 (sho1Δ), GAL1 promoter, in membrane fraction; in intact cells; not shown: HA, N-terminal, kept) MSISSKIRPTPRKPSRMATDHSFKMKKFYADPFAISSISLAIVSWVIAICGSISSASTNESFPRFTWWGIVYQFLIISSLMLFYSFDLVDHYRIFITTSIAVAFVYNTNSATNLVYADGPKKAAASAGVILLSIINLIWILYYGGDNASPTNRWIDSFSIKGIRPSPLENSLHRARRRGNRNTTPYQNNVYNDAIRDSGYATQFDGYPQQQPSHTNYVSSTALAGFENTQPNTSEAVNLHLNTLQQRINSASNAKETNDNSNNQTNTNIGNTFDTDFSNGNTETTMGDTLGLYSDIGDDNFIYKAKALYPYDADDDDAYEISFEQNEILQVSDIEGRWWKARRANGETGIIPSNYVQLIDGPEEMHR | 2 |
| HA-Sho1*-A124C (natural protein, Saccharomyces cerevisiae, UniProt P40073 1-367, looked up, Sho1, S. cerevisiae, Cys-less (C78S C85S) with a single Cys in TM4; source: S. cerevisiae KT079 (sho1Δ), GAL1 promoter, in membrane fraction; S. cerevisiae KY590-1, GAL1 promoter, in intact cells, then lysate; not shown: HA, N-terminal, kept) MSISSKIRPTPRKPSRMATDHSFKMKKFYADPFAISSISLAIVSWVIAIGGSISSASTNESFPRFTWWGIVYQFLIISSLMLFYSFDLVDHYRIFITTSIAVAFVYNTNSATNLVYADGPKKACASAGVILLSIINLIWILYYGGDNASPTNRWIDSFSIKGIRPSPLENSLHRARRRGNRNTTPYQNNVYNDAIRDSGYATQFDGYPQQQPSHTNYVSSTALAGFENTQPNTSEAVNLHLNTLQQRINSASNAKETNDNSNNQTNTNIGNTFDTDFSNGNTETTMGDTLGLYSDIGDDNFIYKAKALYPYDADDDDAYEISFEQNEILQVSDIEGRWWKARRANGETGIIPSNYVQLIDGPEEMHR | 2 |
| HA-Sho1* T66C (natural protein, Saccharomyces cerevisiae, UniProt P40073 1-367, looked up, Sho1, S. cerevisiae, Cys-less (C78S C85S) with a single Cys in TM2; also called Sho1-FL-T66C; source: S. cerevisiae KT079 (sho1Δ), GAL1 promoter, in membrane fraction; not shown: HA, N-terminal, kept) MSISSKIRPTPRKPSRMATDHSFKMKKFYADPFAISSISLAIVSWVIAIGGSISSASTNESFPRFCWWGIVYQFLIISSLMLFYSFDLVDHYRIFITTSIAVAFVYNTNSATNLVYADGPKKAAASAGVILLSIINLIWILYYGGDNASPTNRWIDSFSIKGIRPSPLENSLHRARRRGNRNTTPYQNNVYNDAIRDSGYATQFDGYPQQQPSHTNYVSSTALAGFENTQPNTSEAVNLHLNTLQQRINSASNAKETNDNSNNQTNTNIGNTFDTDFSNGNTETTMGDTLGLYSDIGDDNFIYKAKALYPYDADDDDAYEISFEQNEILQVSDIEGRWWKARRANGETGIIPSNYVQLIDGPEEMHR | 3 |
| HA-Sho1* T112C (natural protein, Saccharomyces cerevisiae, UniProt P40073 1-367, looked up, Sho1, S. cerevisiae, Cys-less (C78S C85S) with a single Cys in TM3; source: S. cerevisiae KT079 (sho1Δ), GAL1 promoter, in membrane fraction; not shown: HA, N-terminal, kept) MSISSKIRPTPRKPSRMATDHSFKMKKFYADPFAISSISLAIVSWVIAIGGSISSASTNESFPRFTWWGIVYQFLIISSLMLFYSFDLVDHYRIFITTSIAVAFVYNTNSACNLVYADGPKKAAASAGVILLSIINLIWILYYGGDNASPTNRWIDSFSIKGIRPSPLENSLHRARRRGNRNTTPYQNNVYNDAIRDSGYATQFDGYPQQQPSHTNYVSSTALAGFENTQPNTSEAVNLHLNTLQQRINSASNAKETNDNSNNQTNTNIGNTFDTDFSNGNTETTMGDTLGLYSDIGDDNFIYKAKALYPYDADDDDAYEISFEQNEILQVSDIEGRWWKARRANGETGIIPSNYVQLIDGPEEMHR | 3 |

Target: the molecule itself
Assay: cross-linking; detergent-free membrane fraction of sho1Δ cells expressing a Cys mutant of HA-Sho1*; 0.2 mM bifunctional thiol crosslinker (o-PDM, p-PDM or BMH), 20 min, 25 °C; SDS–PAGE, anti-HA blot

| Protein | stoichiometry N |
| --- | --- |
| HA-Sho1* T66C I94C (natural protein, Saccharomyces cerevisiae, UniProt P40073 1-367, looked up, Sho1, S. cerevisiae, Cys-less (C78S C85S) with Cys in TM2 and TM3; source: S. cerevisiae KT079 (sho1Δ), GAL1 promoter, in membrane fraction; not shown: HA, N-terminal, kept) MSISSKIRPTPRKPSRMATDHSFKMKKFYADPFAISSISLAIVSWVIAIGGSISSASTNESFPRFCWWGIVYQFLIISSLMLFYSFDLVDHYRCFITTSIAVAFVYNTNSATNLVYADGPKKAAASAGVILLSIINLIWILYYGGDNASPTNRWIDSFSIKGIRPSPLENSLHRARRRGNRNTTPYQNNVYNDAIRDSGYATQFDGYPQQQPSHTNYVSSTALAGFENTQPNTSEAVNLHLNTLQQRINSASNAKETNDNSNNQTNTNIGNTFDTDFSNGNTETTMGDTLGLYSDIGDDNFIYKAKALYPYDADDDDAYEISFEQNEILQVSDIEGRWWKARRANGETGIIPSNYVQLIDGPEEMHR | 3 |
| HA-Sho1* G50C A124C (natural protein, Saccharomyces cerevisiae, UniProt P40073 1-367, looked up, Sho1, S. cerevisiae, Cys-less (C78S C85S) with Cys in TM1 and TM4; also called G/C A/C; source: S. cerevisiae KT079 (sho1Δ), GAL1 promoter, in membrane fraction; not shown: HA, N-terminal, kept) MSISSKIRPTPRKPSRMATDHSFKMKKFYADPFAISSISLAIVSWVIAICGSISSASTNESFPRFTWWGIVYQFLIISSLMLFYSFDLVDHYRIFITTSIAVAFVYNTNSATNLVYADGPKKACASAGVILLSIINLIWILYYGGDNASPTNRWIDSFSIKGIRPSPLENSLHRARRRGNRNTTPYQNNVYNDAIRDSGYATQFDGYPQQQPSHTNYVSSTALAGFENTQPNTSEAVNLHLNTLQQRINSASNAKETNDNSNNQTNTNIGNTFDTDFSNGNTETTMGDTLGLYSDIGDDNFIYKAKALYPYDADDDDAYEISFEQNEILQVSDIEGRWWKARRANGETGIIPSNYVQLIDGPEEMHR | 2 |
| HA-Sho1* T66C T112C (natural protein, Saccharomyces cerevisiae, UniProt P40073 1-367, looked up, Sho1, S. cerevisiae, Cys-less (C78S C85S) with Cys in TM2 and TM3; also called T/C T/C; source: S. cerevisiae KT079 (sho1Δ), GAL1 promoter, in membrane fraction; not shown: HA, N-terminal, kept) MSISSKIRPTPRKPSRMATDHSFKMKKFYADPFAISSISLAIVSWVIAIGGSISSASTNESFPRFCWWGIVYQFLIISSLMLFYSFDLVDHYRIFITTSIAVAFVYNTNSACNLVYADGPKKAAASAGVILLSIINLIWILYYGGDNASPTNRWIDSFSIKGIRPSPLENSLHRARRRGNRNTTPYQNNVYNDAIRDSGYATQFDGYPQQQPSHTNYVSSTALAGFENTQPNTSEAVNLHLNTLQQRINSASNAKETNDNSNNQTNTNIGNTFDTDFSNGNTETTMGDTLGLYSDIGDDNFIYKAKALYPYDADDDDAYEISFEQNEILQVSDIEGRWWKARRANGETGIIPSNYVQLIDGPEEMHR | 3 |
| HA-Sho1* I94C T112C (natural protein, Saccharomyces cerevisiae, UniProt P40073 1-367, looked up, Sho1, S. cerevisiae, Cys-less (C78S C85S) with two Cys in TM3; source: S. cerevisiae KT079 (sho1Δ), GAL1 promoter, in membrane fraction; not shown: HA, N-terminal, kept) MSISSKIRPTPRKPSRMATDHSFKMKKFYADPFAISSISLAIVSWVIAIGGSISSASTNESFPRFTWWGIVYQFLIISSLMLFYSFDLVDHYRCFITTSIAVAFVYNTNSACNLVYADGPKKAAASAGVILLSIINLIWILYYGGDNASPTNRWIDSFSIKGIRPSPLENSLHRARRRGNRNTTPYQNNVYNDAIRDSGYATQFDGYPQQQPSHTNYVSSTALAGFENTQPNTSEAVNLHLNTLQQRINSASNAKETNDNSNNQTNTNIGNTFDTDFSNGNTETTMGDTLGLYSDIGDDNFIYKAKALYPYDADDDDAYEISFEQNEILQVSDIEGRWWKARRANGETGIIPSNYVQLIDGPEEMHR | 3 |

Target: the molecule itself
Assay: cross-linking; spontaneous disulfide bond formation: membrane fractions without chemical crosslinker, SDS–PAGE without 2-ME, anti-HA blot

| Protein | stoichiometry N |
| --- | --- |
| HA-Sho1* I53C (natural protein, Saccharomyces cerevisiae, UniProt P40073 1-367, looked up, Sho1, S. cerevisiae, Cys-less (C78S C85S) with a single Cys; source: S. cerevisiae KT079 (sho1Δ), GAL1 promoter, in membrane fraction; not shown: HA, N-terminal, kept) MSISSKIRPTPRKPSRMATDHSFKMKKFYADPFAISSISLAIVSWVIAIGGSCSSASTNESFPRFTWWGIVYQFLIISSLMLFYSFDLVDHYRIFITTSIAVAFVYNTNSATNLVYADGPKKAAASAGVILLSIINLIWILYYGGDNASPTNRWIDSFSIKGIRPSPLENSLHRARRRGNRNTTPYQNNVYNDAIRDSGYATQFDGYPQQQPSHTNYVSSTALAGFENTQPNTSEAVNLHLNTLQQRINSASNAKETNDNSNNQTNTNIGNTFDTDFSNGNTETTMGDTLGLYSDIGDDNFIYKAKALYPYDADDDDAYEISFEQNEILQVSDIEGRWWKARRANGETGIIPSNYVQLIDGPEEMHR | 2 |
| HA-Sho1* V105C (natural protein, Saccharomyces cerevisiae, UniProt P40073 1-367, looked up, Sho1, S. cerevisiae, Cys-less (C78S C85S) with a single Cys; source: S. cerevisiae KT079 (sho1Δ), GAL1 promoter, in membrane fraction; not shown: HA, N-terminal, kept) MSISSKIRPTPRKPSRMATDHSFKMKKFYADPFAISSISLAIVSWVIAIGGSISSASTNESFPRFTWWGIVYQFLIISSLMLFYSFDLVDHYRIFITTSIAVAFCYNTNSATNLVYADGPKKAAASAGVILLSIINLIWILYYGGDNASPTNRWIDSFSIKGIRPSPLENSLHRARRRGNRNTTPYQNNVYNDAIRDSGYATQFDGYPQQQPSHTNYVSSTALAGFENTQPNTSEAVNLHLNTLQQRINSASNAKETNDNSNNQTNTNIGNTFDTDFSNGNTETTMGDTLGLYSDIGDDNFIYKAKALYPYDADDDDAYEISFEQNEILQVSDIEGRWWKARRANGETGIIPSNYVQLIDGPEEMHR | 2 |
| HA-Sho1* A123C (natural protein, Saccharomyces cerevisiae, UniProt P40073 1-367, looked up, Sho1, S. cerevisiae, Cys-less (C78S C85S) with a single Cys; source: S. cerevisiae KT079 (sho1Δ), GAL1 promoter, in membrane fraction; not shown: HA, N-terminal, kept) MSISSKIRPTPRKPSRMATDHSFKMKKFYADPFAISSISLAIVSWVIAIGGSISSASTNESFPRFTWWGIVYQFLIISSLMLFYSFDLVDHYRIFITTSIAVAFVYNTNSATNLVYADGPKKCAASAGVILLSIINLIWILYYGGDNASPTNRWIDSFSIKGIRPSPLENSLHRARRRGNRNTTPYQNNVYNDAIRDSGYATQFDGYPQQQPSHTNYVSSTALAGFENTQPNTSEAVNLHLNTLQQRINSASNAKETNDNSNNQTNTNIGNTFDTDFSNGNTETTMGDTLGLYSDIGDDNFIYKAKALYPYDADDDDAYEISFEQNEILQVSDIEGRWWKARRANGETGIIPSNYVQLIDGPEEMHR | 2 |
| HA-Sho1* N109C (natural protein, Saccharomyces cerevisiae, UniProt P40073 1-367, looked up, Sho1, S. cerevisiae, Cys-less (C78S C85S) with a single Cys; source: S. cerevisiae KT079 (sho1Δ), GAL1 promoter, in membrane fraction; not shown: HA, N-terminal, kept) MSISSKIRPTPRKPSRMATDHSFKMKKFYADPFAISSISLAIVSWVIAIGGSISSASTNESFPRFTWWGIVYQFLIISSLMLFYSFDLVDHYRIFITTSIAVAFVYNTCSATNLVYADGPKKAAASAGVILLSIINLIWILYYGGDNASPTNRWIDSFSIKGIRPSPLENSLHRARRRGNRNTTPYQNNVYNDAIRDSGYATQFDGYPQQQPSHTNYVSSTALAGFENTQPNTSEAVNLHLNTLQQRINSASNAKETNDNSNNQTNTNIGNTFDTDFSNGNTETTMGDTLGLYSDIGDDNFIYKAKALYPYDADDDDAYEISFEQNEILQVSDIEGRWWKARRANGETGIIPSNYVQLIDGPEEMHR | 2 |
| HA-Sho1* S54C (natural protein, Saccharomyces cerevisiae, UniProt P40073 1-367, looked up, Sho1, S. cerevisiae, Cys-less (C78S C85S) with a single Cys; source: S. cerevisiae KT079 (sho1Δ), GAL1 promoter, in membrane fraction; not shown: HA, N-terminal, kept) MSISSKIRPTPRKPSRMATDHSFKMKKFYADPFAISSISLAIVSWVIAIGGSICSASTNESFPRFTWWGIVYQFLIISSLMLFYSFDLVDHYRIFITTSIAVAFVYNTNSATNLVYADGPKKAAASAGVILLSIINLIWILYYGGDNASPTNRWIDSFSIKGIRPSPLENSLHRARRRGNRNTTPYQNNVYNDAIRDSGYATQFDGYPQQQPSHTNYVSSTALAGFENTQPNTSEAVNLHLNTLQQRINSASNAKETNDNSNNQTNTNIGNTFDTDFSNGNTETTMGDTLGLYSDIGDDNFIYKAKALYPYDADDDDAYEISFEQNEILQVSDIEGRWWKARRANGETGIIPSNYVQLIDGPEEMHR | 2 |
